Results on eleven substances are retold here after IntAct's records for PubMed 26305884.

Sequence of Cyclin-dependent kinase 16 (Mus musculus), Q04735 S146D (Q04735 whole entry S146D): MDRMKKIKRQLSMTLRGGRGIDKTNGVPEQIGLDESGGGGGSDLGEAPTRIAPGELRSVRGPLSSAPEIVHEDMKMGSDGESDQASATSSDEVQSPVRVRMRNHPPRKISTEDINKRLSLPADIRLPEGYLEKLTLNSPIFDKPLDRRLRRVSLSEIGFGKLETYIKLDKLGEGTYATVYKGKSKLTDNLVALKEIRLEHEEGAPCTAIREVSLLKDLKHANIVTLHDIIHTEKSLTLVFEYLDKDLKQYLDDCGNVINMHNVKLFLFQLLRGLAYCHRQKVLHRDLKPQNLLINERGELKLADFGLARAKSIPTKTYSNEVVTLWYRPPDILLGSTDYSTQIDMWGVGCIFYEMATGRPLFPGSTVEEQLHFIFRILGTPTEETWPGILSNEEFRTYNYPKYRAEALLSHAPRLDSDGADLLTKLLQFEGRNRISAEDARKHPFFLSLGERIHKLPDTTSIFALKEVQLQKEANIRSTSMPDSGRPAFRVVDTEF
Sequence of Cyclin-dependent kinase 16 (Mus musculus), Q04735 S153D (Q04735 whole entry S153D): as the sequence (Q04735 whole entry S146D) above, with D146S, S153D counted along it
Sequence of Cyclin-dependent kinase 16 (Mus musculus), Q04735 S153A (Q04735 whole entry S153A): as the sequence (Q04735 whole entry S146D) above, with D146S, S153A counted along it
Sequence of Cyclin-dependent kinase 16 (Mus musculus), Q04735 S146A (Q04735 whole entry S146A): as the sequence (Q04735 whole entry S146D) above, with D146A counted along it
Sequence of Cyclin-dependent kinase 16 (Mus musculus), Q04735 S110A (Q04735 whole entry S110A): as the sequence (Q04735 whole entry S146D) above, with S110A, D146S counted along it
Sequence of Cyclin-dependent kinase 16 (Mus musculus), Q04735 S119A (Q04735 whole entry S119A): as the sequence (Q04735 whole entry S146D) above, with S119A, D146S counted along it
Sequence of Cyclin-dependent kinase 16 (Mus musculus), Q04735 S110D (Q04735 whole entry S110D): as the sequence (Q04735 whole entry S146D) above, with S110D, D146S counted along it
Sequence of Cyclin-dependent kinase 16 (Mus musculus), Q04735 S78A (Q04735 whole entry S78A): as the sequence (Q04735 whole entry S146D) above, with S78A, D146S counted along it

The target of the assay is ccyl1_mouse Ccnyl1 (UniProt D3YUJ3).
Sequence of ccyl1_mouse Ccnyl1 (D3YUJ3 whole entry): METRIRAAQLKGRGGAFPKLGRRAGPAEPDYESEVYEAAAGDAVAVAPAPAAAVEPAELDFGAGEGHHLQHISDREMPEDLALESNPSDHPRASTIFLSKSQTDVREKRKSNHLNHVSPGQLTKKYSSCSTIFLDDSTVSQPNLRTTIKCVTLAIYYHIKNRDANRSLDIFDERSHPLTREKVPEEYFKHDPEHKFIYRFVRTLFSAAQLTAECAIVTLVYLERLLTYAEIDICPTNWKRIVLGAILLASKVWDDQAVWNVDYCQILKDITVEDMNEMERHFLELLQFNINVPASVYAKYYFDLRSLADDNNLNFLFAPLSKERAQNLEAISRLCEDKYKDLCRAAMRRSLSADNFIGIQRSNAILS
With “Cyclin-dependent kinase 16 (Mus musculus), Q04735 P205A;T207A;R210A;E211A”, the “effect of a mutation on the interaction” value was “disrupting interaction strength”.

With “Cyclin-dependent kinase 16 (Mus musculus), Q04735 S78A”, the “effect of a mutation on the interaction” value is “increasing interaction strength”.

Consider “Cyclin-dependent kinase 16 (Mus musculus), Q04735 S110A”, for which the “effect of a mutation on the interaction” value is listed as “decreasing interaction strength”.

For the substance “Cyclin-dependent kinase 16 (Mus musculus), Q04735 S110D”, the “effect of a mutation on the interaction” value is “decreasing interaction strength”.

Take “Cyclin-dependent kinase 16 (Mus musculus), Q04735 S119A”: the “effect of a mutation on the interaction” value is listed as “decreasing interaction strength”.

For “Cyclin-dependent kinase 16 (Mus musculus), Q04735 S146A”, the “effect of a mutation on the interaction” value is “disrupting interaction strength”.

As for “Cyclin-dependent kinase 16 (Mus musculus), Q04735 S146D”, the “effect of a mutation on the interaction” value is on record as “disrupting interaction strength”.

Take “Cyclin-dependent kinase 16 (Mus musculus), Q04735 S153A”: the “effect of a mutation on the interaction” value was “increasing interaction strength”.

For “Cyclin-dependent kinase 16 (Mus musculus), Q04735 S153D”, the “effect of a mutation on the interaction” value is recorded as “decreasing interaction strength”.

Take “Cyclin-dependent kinase 16 (Mus musculus), Q04735 T175A”: the “effect of a mutation on the interaction” value was “decreasing interaction strength”.

With “Cyclin-dependent kinase 16 (Mus musculus), Q04735 T175D”, the “effect of a mutation on the interaction” value is reported as “increasing interaction strength”.
